Laboratory results reported in PMC8062120, “Molecular basis of F-actin regulation and sarcomere assembly via myotilin” (PLoS Biology, 2021).

T1: Full-length myotilin with N-terminal thioredoxin tag (Trx-MYOT) (human, UniProt Q9UBF9 1-498)
T1 construct: myotilin, human, full length; source: E. coli B834 (DE3), purified (HisTrap FF, SEC); not shown: Trx, N-terminal, kept
T1 sequence (looked up): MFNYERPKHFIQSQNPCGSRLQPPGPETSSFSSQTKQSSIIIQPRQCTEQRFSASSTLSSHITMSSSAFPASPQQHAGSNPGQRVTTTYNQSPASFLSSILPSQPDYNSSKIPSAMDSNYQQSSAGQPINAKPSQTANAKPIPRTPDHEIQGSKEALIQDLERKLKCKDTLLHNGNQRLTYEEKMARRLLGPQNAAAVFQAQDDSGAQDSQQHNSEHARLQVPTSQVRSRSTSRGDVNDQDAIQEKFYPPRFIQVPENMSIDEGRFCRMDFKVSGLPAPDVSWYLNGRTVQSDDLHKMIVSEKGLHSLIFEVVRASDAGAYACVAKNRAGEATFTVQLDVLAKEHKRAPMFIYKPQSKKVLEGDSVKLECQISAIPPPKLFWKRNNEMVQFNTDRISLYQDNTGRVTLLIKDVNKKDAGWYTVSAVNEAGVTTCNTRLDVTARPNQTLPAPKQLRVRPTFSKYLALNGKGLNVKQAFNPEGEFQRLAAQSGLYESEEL

B1: α-actinin-2 EF14 (ACTN2-EF14), CAMD encoding all 4 EF-hands (domain or fragment)
chain: DAKGITQEQMNEFRASFNHFDRRKNGLMDHEDFRACLISMGYDLGEAEFARIMTLVDPNGQGTVTFQSFIDFMTRETADTDTAEQVIASFRILASDKPYILAEELRRELPPDQAQYCIKRMPAYSGPGSVPGALDYAAFSSALYGESDL
modifications: His6-tag removed with HRV-3C protease; limits not printed (S3 Table), so taken by convention from just before EF-hand 1 (753) to the C-terminus
B2: Myotilin Ig1Ig2^220–452 (domain or fragment, human, UniProt Q9UBF9 220-452, looked up)
chain: LQVPTSQVRSRSTSRGDVNDQDAIQEKFYPPRFIQVPENMSIDEGRFCRMDFKVSGLPAPDVSWYLNGRTVQSDDLHKMIVSEKGLHSLIFEVVRASDAGAYACVAKNRAGEATFTVQLDVLAKEHKRAPMFIYKPQSKKVLEGDSVKLECQISAIPPPKLFWKRNNEMVQFNTDRISLYQDNTGRVTLLIKDVNKKDAGWYTVSAVNEAGVTTCNTRLDVTARPNQTLPAPK
notes: Dimer only at high concentration; monomeric at low concentrations; source: E. coli, purified (HisTrap, HRV-3C cleavage, SEC); not shown: His tag (from the HisTrap column)
B3: Myotilin Ig1Ig2^250–498 (domain or fragment)
chain: PRFIQVPENMSIDEGRFCRMDFKVSGLPAPDVSWYLNGRTVQSDDLHKMIVSEKGLHSLIFEVVRASDAGAYACVAKNRAGEATFTVQLDVLAKEHKRAPMFIYKPQSKKVLEGDSVKLECQISAIPPPKLFWKRNNEMVQFNTDRISLYQDNTGRVTLLIKDVNKKDAGWYTVSAVNEAGVTTCNTRLDVTARPNQTLPAPKQLRVRPTFSKYLALNGKGLNVKQAFNPEGEFQRLAAQSGLYESEEL
notes: source: E. coli B834 (DE3), purified (HisTrap, HRV-3C cleavage, Resource S cation exchange, SEC); not shown: His tag (from the HisTrap column)
B4: Myotilin Ig1Ig2^185–454 (domain or fragment)
chain: MARRLLGPQNAAAVFQAQDDSGAQDSQQHNSEHARLQVPTSQVRSRSTSRGDVNDQDAIQEKFYPPRFIQVPENMSIDEGRFCRMDFKVSGLPAPDVSWYLNGRTVQSDDLHKMIVSEKGLHSLIFEVVRASDAGAYACVAKNRAGEATFTVQLDVLAKEHKRAPMFIYKPQSKKVLEGDSVKLECQISAIPPPKLFWKRNNEMVQFNTDRISLYQDNTGRVTLLIKDVNKKDAGWYTVSAVNEAGVTTCNTRLDVTARPNQTLPAPKQL
notes: limits determined by intact protein mass spectrometry of the final product; source: E. coli, purified (GSTrap FF, TEV cleavage, IMAC and GSTrap flow-through, SEC)
B5: Myotilin Ig1Ig2^185–498 (domain or fragment)
chain: MARRLLGPQNAAAVFQAQDDSGAQDSQQHNSEHARLQVPTSQVRSRSTSRGDVNDQDAIQEKFYPPRFIQVPENMSIDEGRFCRMDFKVSGLPAPDVSWYLNGRTVQSDDLHKMIVSEKGLHSLIFEVVRASDAGAYACVAKNRAGEATFTVQLDVLAKEHKRAPMFIYKPQSKKVLEGDSVKLECQISAIPPPKLFWKRNNEMVQFNTDRISLYQDNTGRVTLLIKDVNKKDAGWYTVSAVNEAGVTTCNTRLDVTARPNQTLPAPKQLRVRPTFSKYLALNGKGLNVKQAFNPEGEFQRLAAQSGLYESEEL
notes: source: E. coli C41 (DE3), purified (HisTrap FF, HRV-3C cleavage, StrepTrap HP, SEC)

Columns and labels:
[1] = molecular target: T1, Full-length myotilin with N-terminal …; experiment: ITC; 25°C; 400 μM ACTN2-EF14 injected into the cell with 20 μM Trx-MYOT or Trx-MYOT-NEECK; 20 mM Hepes, 400 mM NaCl, 250 mM arginine, 5% glycerol, pH 7.5; settings: both partners purified
[2] = molecular target: the molecule itself; experiment: SAXS; batch SAXS at high or comparable concentrations; Ig1Ig2^250–444 up to 14.12 mg/ml, Ig1Ig2^250–498 up to 42.8 mg/ml, Ig1Ig2^220–452 up to 52 or 36.6 mg/ml, R405K up to 45.5 mg/ml; 20 mM HEPES, 150 mM NaCl, 5% glycerol, 1 mM DTT, pH 7.4 (one 220–452 set in 20 mM MES, 200 mM NaCl, pH 6.0); mass from I0, Rg, Dmax, P(r); monomer to dimer
[3] = molecular target: F-actin (rabbit skeletal muscle actin, polymerized) (rabbit, UniProt P68135 1-377); experiment: co-sedimentation; F-actin co-sedimentation, conditions B2 (PIPES pH 6.8, 100 mM NaCl); fixed 6 μM myotilin fragment in 20 μl mixed with pre-polymerized F-actin (0 to 60 μM) in 20 μl; one site-specific binding fit; apparent Kd; settings: both partners purified

Row | Binder | Kd [3] [µM] | also measured
1 | B1 |  | Kd [1]: 4.2 ± 1.2 µM
2 | B2 |  | stoichiometry N [2]: 2
3 | B3 | 1.2 ± 0.2 | 
4 | B4 | 3 ± 0.6 | 
5 | B5 | 2 ± 0.4 | 
